Data set [1] concerns the molecule itself. Description: SEC; analytical gel filtration, Superose 6 Increase 3.2/300 column.
In data set [2] the target is T1, recombinant human S100A9 (human), P06702.
T1 chain: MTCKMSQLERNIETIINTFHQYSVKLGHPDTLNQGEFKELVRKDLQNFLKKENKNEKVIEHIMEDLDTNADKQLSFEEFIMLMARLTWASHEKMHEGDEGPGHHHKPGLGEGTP
Description: SEC-MALS; 30 µL of protein at 5 mg/mL on a Superose 6 Increase 10/300 GL column; light scattering and refractive index detectors. The conditions noted are these: remark: other sources report otherwise.

Broadly, the stoichiometry N is the number of molecules, sites or subunits per partner or assembly.

B1: recombinant murine S100A9 (natural protein, UniProt P31725 1-113, looked up)
chain: MANKAPSQMERSITTIIDTFHQYSRKEGHPDTLSKKEFRQMVEAQLATFMKKEKRNEALINDIMEDLDTNQDNQLSFEECMMLMAKLIFACHEKLHENNPRGHGHSHGKGCGK
notes: cDNA encoding the protein cloned into a pET29+ vector; The homodimeric status is said of r-hS100A9; also called r-mS100A9; not shown: His10, N-terminal, cleaved; MBP, N-terminal, cleaved
For B1, in data set [1], the binding result was “binds”.

B2: recombinant human S100A9, P06702 1-114 (natural protein)
chain: T1 chain
For the molecule B2, in data set [2], the stoichiometry N was 2.

For the origin of these results see publication PMC9287425, “Hepatic non-parenchymal S100A9-TLR4-mTORC1 axis normalizes diabetic ketogenesis” (Nature Communications, 2022).
